Patent US20040053365A1 (LUDWIG INSTITUTE FOR CANCER RESEARCH, published 2004)

Molecular target: T1, recombinant human GM-CSF (human, UniProt P04141 18-144)
T1 construct: also called rhGM-CSF
Test: SPR, BIAcore 2000, 100 RU rhGM-CSF on chip, antibody 1-10 nM, Langmuir 1:1 model

T1 sequence (P04141 18-144 limits assumed): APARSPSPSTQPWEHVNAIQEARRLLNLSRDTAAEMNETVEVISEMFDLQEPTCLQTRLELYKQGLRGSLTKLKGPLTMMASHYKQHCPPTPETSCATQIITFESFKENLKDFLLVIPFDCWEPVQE

B1: chimeric 19/2 anti-human GM-CSF monoclonal antibody (antibody, V domains shown)
VH: EVQLQQSGPELVKPGASVKISCKASGYTFTDYNIHWVKQSHGKSLDWIGYIAPYSGGTGYNQEFKNRATLTVDKSSSTAYMELRSLTSDDSAVYYCARRDRFPYFDYWGQGTTLRVSS
VL: DIVMIQSQKFVSTSVGDRVNITCKASQNVGSNVAWLQQKPGQSPKTLIYSASYRSGRVPDRFTGSGSGTDFILTITTVQSEDLAEYFCQQFNRSPLTFGSGTKLELKR
kon: 510000 M⁻¹ s⁻¹
